From paper PMC9132891, “Antigenic structure of the human coronavirus OC43 spike reveals exposed and occluded neutralizing epitopes” (Nature Communications, 2022)

How the values were obtained:
Experiment in all cases: ELISA; S1 antigens coated; H2L2 mAbs at one concentration, 0.4 μg/ml; OD450nm
Details in all cases: both partners purified
[1] = biological target: T1, S1 of bovine coronavirus (BCoV), strain Mebus (Bovine coronavirus (strain Mebus) …, UniProt P15777)
T1 construct: also called BCoV S1; source: HEK-293T, purified (Protein A sepharose)

[2] = biological target: T2, S1 of OC43 isolate USA/1990(A-II) (Human coronavirus OC43, USA/1990(A-II) …, strain)
T2 construct: source: HEK-293T, transient, purified from culture supernatant (Protein A sepharose)
T2 chain: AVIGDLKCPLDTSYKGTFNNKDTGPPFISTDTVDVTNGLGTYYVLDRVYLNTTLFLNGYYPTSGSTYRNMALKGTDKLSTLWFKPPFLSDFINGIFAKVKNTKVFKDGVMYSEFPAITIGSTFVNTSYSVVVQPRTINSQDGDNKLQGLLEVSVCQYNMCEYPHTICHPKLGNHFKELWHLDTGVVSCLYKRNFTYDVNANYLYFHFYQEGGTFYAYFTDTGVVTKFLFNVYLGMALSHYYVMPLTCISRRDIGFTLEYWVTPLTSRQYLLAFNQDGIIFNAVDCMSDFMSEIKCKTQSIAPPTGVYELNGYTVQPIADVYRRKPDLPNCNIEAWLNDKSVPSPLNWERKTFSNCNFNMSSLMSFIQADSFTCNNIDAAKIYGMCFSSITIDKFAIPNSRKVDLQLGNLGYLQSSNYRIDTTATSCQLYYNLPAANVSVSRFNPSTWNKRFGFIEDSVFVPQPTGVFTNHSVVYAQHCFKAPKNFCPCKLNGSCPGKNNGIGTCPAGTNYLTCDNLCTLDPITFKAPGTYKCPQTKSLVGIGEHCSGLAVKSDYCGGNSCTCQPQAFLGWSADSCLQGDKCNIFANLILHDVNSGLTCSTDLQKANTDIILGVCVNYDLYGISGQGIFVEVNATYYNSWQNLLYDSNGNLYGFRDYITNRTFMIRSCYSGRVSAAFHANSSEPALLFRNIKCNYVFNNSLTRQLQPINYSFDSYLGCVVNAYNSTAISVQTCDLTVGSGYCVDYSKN

[3] = biological target: T3, S1 of OC43 isolate NL/2019 (Human coronavirus OC43, NL/2019, strain)
T3 construct: source: HEK-293T, transient, purified from culture supernatant (Protein A sepharose)
T3 chain: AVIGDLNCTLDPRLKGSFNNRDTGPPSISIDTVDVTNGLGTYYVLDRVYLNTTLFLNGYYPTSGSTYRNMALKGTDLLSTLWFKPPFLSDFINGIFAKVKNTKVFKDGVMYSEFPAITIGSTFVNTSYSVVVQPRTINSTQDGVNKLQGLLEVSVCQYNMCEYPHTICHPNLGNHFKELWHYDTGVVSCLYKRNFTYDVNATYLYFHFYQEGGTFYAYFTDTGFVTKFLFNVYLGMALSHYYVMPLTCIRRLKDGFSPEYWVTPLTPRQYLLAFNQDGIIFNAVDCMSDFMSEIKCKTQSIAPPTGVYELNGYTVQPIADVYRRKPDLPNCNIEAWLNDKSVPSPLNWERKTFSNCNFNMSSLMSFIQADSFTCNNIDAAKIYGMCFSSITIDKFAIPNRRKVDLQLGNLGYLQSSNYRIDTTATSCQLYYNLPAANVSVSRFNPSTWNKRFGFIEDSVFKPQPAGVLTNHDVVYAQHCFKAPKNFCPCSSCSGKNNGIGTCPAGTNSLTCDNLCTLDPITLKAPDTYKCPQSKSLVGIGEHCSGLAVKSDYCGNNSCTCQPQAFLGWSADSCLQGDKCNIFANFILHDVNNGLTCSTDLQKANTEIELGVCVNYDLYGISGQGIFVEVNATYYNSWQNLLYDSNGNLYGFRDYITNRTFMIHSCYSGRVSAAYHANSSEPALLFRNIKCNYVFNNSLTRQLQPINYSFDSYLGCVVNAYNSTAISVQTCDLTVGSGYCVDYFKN

[4] = biological target: T4, S1 of OC43 isolate USA/1990(B) (Human coronavirus OC43, USA/1990(B) …, strain)
T4 construct: source: HEK-293T, transient, purified from culture supernatant (Protein A sepharose)
T4 chain: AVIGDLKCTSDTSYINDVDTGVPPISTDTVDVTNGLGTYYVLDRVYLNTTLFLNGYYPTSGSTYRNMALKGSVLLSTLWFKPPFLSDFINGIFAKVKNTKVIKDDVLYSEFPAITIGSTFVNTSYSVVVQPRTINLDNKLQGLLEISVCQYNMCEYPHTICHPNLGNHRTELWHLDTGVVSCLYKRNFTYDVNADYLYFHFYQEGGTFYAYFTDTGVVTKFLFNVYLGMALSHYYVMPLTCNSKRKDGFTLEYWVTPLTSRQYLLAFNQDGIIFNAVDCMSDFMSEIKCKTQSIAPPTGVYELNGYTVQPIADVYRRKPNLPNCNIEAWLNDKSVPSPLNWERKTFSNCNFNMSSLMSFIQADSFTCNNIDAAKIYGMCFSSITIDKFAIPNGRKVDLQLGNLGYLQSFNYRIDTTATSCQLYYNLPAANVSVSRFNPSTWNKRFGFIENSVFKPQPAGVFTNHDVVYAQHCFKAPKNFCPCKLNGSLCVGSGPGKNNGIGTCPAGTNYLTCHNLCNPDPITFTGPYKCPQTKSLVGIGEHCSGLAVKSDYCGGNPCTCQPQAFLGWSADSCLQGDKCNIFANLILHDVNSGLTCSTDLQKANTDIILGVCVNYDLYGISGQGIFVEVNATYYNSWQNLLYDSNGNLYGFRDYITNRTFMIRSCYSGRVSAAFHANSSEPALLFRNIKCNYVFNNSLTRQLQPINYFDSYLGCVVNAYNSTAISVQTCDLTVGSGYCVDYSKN

[5] = biological target: T5, S1 of OC43 isolate BE/2004 (Human coronavirus OC43, BE/2004, UniProt Q4VID5, strain)
T5 construct: source: HEK-293T, transient, purified from culture supernatant (Protein A sepharose)

[6] = biological target: T6, S1 of OC43 isolate NL/2004 (Human coronavirus OC43, NL/2004, strain)
T6 construct: source: HEK-293T, transient, purified from culture supernatant (Protein A sepharose)
T6 chain: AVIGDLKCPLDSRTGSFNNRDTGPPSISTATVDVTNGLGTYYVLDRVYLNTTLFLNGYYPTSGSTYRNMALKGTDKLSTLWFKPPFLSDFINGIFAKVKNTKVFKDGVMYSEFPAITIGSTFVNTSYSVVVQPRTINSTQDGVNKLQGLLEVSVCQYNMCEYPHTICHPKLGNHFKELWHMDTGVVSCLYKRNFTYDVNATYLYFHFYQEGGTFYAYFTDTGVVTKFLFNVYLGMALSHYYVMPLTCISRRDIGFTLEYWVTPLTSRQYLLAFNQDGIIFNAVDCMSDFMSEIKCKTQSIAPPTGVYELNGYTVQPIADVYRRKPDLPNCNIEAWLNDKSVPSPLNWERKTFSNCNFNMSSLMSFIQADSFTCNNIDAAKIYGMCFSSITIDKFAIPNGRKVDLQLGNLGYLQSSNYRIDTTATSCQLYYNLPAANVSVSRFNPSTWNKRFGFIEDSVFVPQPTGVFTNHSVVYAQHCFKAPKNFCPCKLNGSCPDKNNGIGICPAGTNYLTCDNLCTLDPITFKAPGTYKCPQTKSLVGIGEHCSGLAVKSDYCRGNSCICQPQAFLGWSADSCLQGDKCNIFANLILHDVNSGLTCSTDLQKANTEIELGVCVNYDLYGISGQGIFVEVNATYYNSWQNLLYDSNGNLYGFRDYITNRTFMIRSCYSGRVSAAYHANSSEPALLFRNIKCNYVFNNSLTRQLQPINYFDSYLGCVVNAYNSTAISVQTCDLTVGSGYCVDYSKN

[7] = biological target: T7, S1 of equine coronavirus (ECoV), strain NC99 (Equine coronavirus, strain NC99, UniProt A8R4D0, strain)
T7 construct: also called ECoV S1; source: HEK-293T, purified (Protein A sepharose)

Measured: binding result

T1 sequence (P15777 14-763): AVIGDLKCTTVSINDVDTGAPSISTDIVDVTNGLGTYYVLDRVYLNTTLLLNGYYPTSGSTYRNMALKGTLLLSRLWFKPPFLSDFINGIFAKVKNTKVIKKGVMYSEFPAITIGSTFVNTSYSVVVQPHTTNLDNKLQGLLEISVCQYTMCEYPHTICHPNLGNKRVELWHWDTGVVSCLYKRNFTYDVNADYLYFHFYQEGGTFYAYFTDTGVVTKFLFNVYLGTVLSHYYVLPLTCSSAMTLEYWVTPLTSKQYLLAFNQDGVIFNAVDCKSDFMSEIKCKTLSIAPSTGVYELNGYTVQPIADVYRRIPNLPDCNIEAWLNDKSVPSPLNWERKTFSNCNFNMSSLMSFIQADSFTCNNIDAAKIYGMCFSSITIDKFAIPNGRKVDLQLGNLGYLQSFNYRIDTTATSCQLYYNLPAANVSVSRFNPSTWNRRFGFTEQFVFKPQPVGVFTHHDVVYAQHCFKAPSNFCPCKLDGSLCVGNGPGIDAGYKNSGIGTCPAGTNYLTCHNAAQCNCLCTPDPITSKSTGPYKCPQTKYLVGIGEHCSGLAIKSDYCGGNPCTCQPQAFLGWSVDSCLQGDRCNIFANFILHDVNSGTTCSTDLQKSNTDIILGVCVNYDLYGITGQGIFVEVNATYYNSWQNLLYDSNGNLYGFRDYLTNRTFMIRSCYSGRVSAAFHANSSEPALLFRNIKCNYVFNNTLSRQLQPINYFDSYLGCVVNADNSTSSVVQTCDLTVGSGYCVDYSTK

B1: 65A11 H2L2 monoclonal antibody (antibody, V domains shown)
VH: QVQMVESGGGVVQPGRSLRLSCAASGFSFSSYGMHWVRQAPGKGLEWVAVIWSDVNYKFYADSVKGRFTISRDNSKNTLSLQMNSLRAEDTAVYYCARDSGLRYFDWDYRGYFDLWGRGTLVTVSS
VL: not shown
notes: also called 65A11 (H2L2 format)
binds: [1]

B2: 56E10 H2L2 monoclonal antibody (antibody, V domains shown)
VH: QVQLQESGPGLVKPSETLSLTCTVSGGSISGYYWSWIRQPPGKGLEWIGYIFYNGNTNYNPSLKSRVTTSLDTSKNQFSLKLISVTGADTAVYYCVRTSLYYFDYWGQGTLVTVSS
VL: DIQMTQSPSSLSASVGDRVTITCQASQDISNFLNWYQQKPGKAPKLLIYDTSSLETGVPSRFSGSGSETDFTFTISSLQPEDIATYYCQQYDNLPLTFGGGTKVEIK
notes: also called 56E10 (H2L2 format)
not listed: [1] | [7]
binds: all other assays above

B3: 45B9 H2L2 monoclonal antibody (antibody, V domains shown)
VH: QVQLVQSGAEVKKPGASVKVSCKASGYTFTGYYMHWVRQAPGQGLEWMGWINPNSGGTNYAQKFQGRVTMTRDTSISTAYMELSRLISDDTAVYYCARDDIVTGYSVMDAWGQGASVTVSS
VL: DIQMTQSPSSLSASVGDRVTITCRASQSISNYLNWYQQKPGKAPTLLIYAASSLQSGVPSRFSGSGSGTDFTLTISSLQPEDFATYYCQPSYSSPYTFGQGTKLEIK
notes: also called 45B9 (H2L2 format)
binds: all assays above
